Results as given in the supplement of paper PMC12764529.
± gives the half width of the 95% confidence interval.

How the values were obtained:
[1] = folding stability dG unfold (combined trypsin and chymotrypsin); higher = more stable
Method in brief: (§1)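 Designed mini-proteins with no cysteine and under 80 residues were kept only if AlphaFold2 dimer inter-PAE was above 15. In a PA-tagged cDNA display construct, they were digested with trypsin and chymotrypsin and then sequenced. K50 was inferred by Bayesian fitting of counts, and unfolding free energy was derived per protease or combined against a sequence-predicted unfolded-state K50 and a shared folded-state K50.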

[2] = folding stability dG unfold from trypsin proteolysis; higher = more stable
Method in brief: as §1

[3] = folding stability dG unfold from chymotrypsin proteolysis; higher = more stable
Method in brief: as §1

Row | Sequence | folding stability dG unfold [1] | folding stability dG unfold [2] | folding stability dG unfold [3]
1 | SAGGSEWQPIYEFDLPGKKIKVYMPPDGNYRIEVEKKGKPVNFWVPPNMSPSSIDNMLDQAKEQLNSAGGSA [r2_243_TrROS] | 0.343 ± 0.26 kcal/mol | -0.0661 ± 0.25 kcal/mol | 0.339 ± 0.16 kcal/mol
2 | GSEIKAGRARSSDGTGRIRVVLEREDGSSVEFELDLPGLPGDTFYLDLPESLPLKAKETWVYVDDKPYPVTS [r1_70_TrMRF] | 1.08 ± 0.067 kcal/mol | 0.665 ± 0.054 kcal/mol | 1.25 ± 0.037 kcal/mol
3 | SAGGSAGGSSVKAKLLSYSRDPTSDLVSVELLIEKSSETIPITLTVPPSEVQPGATITIEIRPSAGGSAGGS [r12_76_JUSTAS] | 0.289 ± 0.072 kcal/mol | -0.616 ± 0.16 kcal/mol | 0.609 ± 0.11 kcal/mol
4 | SAGGSAGGSAGGPTITSSKIVAEYPGGKVIEVTIEEPLPTPSTVTKTVTLFIPEGSVLLSAGGSAGGSAGGS [r10_1183_JUSTAS] | 0.361 ± 0.34 kcal/mol | 0.536 ± 0.087 kcal/mol | 0.402 ± 0.15 kcal/mol
5 | SDDKNMKPVKFKVEIEEERIEENGKKYIKIEVTWPGGNTVKIWFDPDKLIITFPVRSVEDVLEEVKDLIKSA [r9_662_TrROS] | 3.06 ± 0.085 kcal/mol | 2.19 ± 0.064 kcal/mol | 3.52 ± 0.039 kcal/mol
6 | SAGGSASSPGTPVKLNVNAIITKKLPDGTITTEPGRTLDLPEEEAIEYLKSLPSSYSVEIESIVVESAGGSA [r15_833_JUSTAS] | -0.115 ± 0.087 kcal/mol | -0.347 ± 0.15 kcal/mol | 0.0371 ± 0.15 kcal/mol
7 | SAGGMIPPEELAARAEAVREAAPASGEVVRTTVVLPSPGLVTRVDLVYEPGAGRITVESVSEVPPELLSAGG [r13_37_JUSTAS] | 0.461 ± 0.046 kcal/mol | 0.496 ± 0.027 kcal/mol | 0.414 ± 0.032 kcal/mol
8 | SAGGMKKIKIVVKVPPNVTAEELAKALEDELKKKGYEVKVTVKVVKKPDGSLYVVIEVEIRPKNEKPSAGGS [r16_128_TrROS_Hall] | 3.52 ± 0.099 kcal/mol | 3.04 ± 0.13 kcal/mol | 3.67 ± 0.075 kcal/mol
9 | SAGGSYRVETTKTEVSEATAPDGTAYRVTTTTTVVTYPDGTRRTVTNVTITDPATGVPTSSTATTTAVSAGG [r13_133_JUSTAS] | 2.25 ± 0.03 kcal/mol | 2.45 ± 0.048 kcal/mol | 2.056 ± 0.017 kcal/mol
10 | SAGGLVIPVTFMFQDWEEAEEFANEIARELANLYPGRPVKIDVEVEPIRNPNNGKRYYMVEATIEIDPSAGG [r13_545_TrROS] | 2.6 ± 0.15 kcal/mol | 2.01 ± 0.059 kcal/mol | 2.77 ± 0.033 kcal/mol
11 | SAGGSAGGSAGGMIIEKKTVEKLPDGTVKVTVSIITVNDDGKTETIKTETKIIPLSELLGSAGGSAGGSAGG [r7_521_JUSTAS] | 2.18 ± 0.11 kcal/mol | 2.31 ± 0.11 kcal/mol | 2.25 ± 0.1 kcal/mol
12 | SAGGPFYLRIKIVDEDGKEITYMFPAPADEAEEEIEELLPGWPLKIDEVERFPGEPGYIMVTIKIPPNSAGG [r13_832_TrROS] | 1.97 ± 0.12 kcal/mol | 1.63 ± 0.051 kcal/mol | 2.07 ± 0.17 kcal/mol
13 | SAGGSAITLEDLKNAEIVKPEVMPFPDNGMWMPTWKLRDPGNGKEFVFTFMYNPGNGEPQWSLVPVSAGGSA [r15_170_TrROS] | 1.2 ± 0.15 kcal/mol | 1.16 ± 0.053 kcal/mol | 1.36 ± 0.1 kcal/mol
14 | SAGMKIEPTKDYVLITVNGPEKALETIKKLKELIPNPEILDIKPHPHPNGENPWTIIIPTKNIPPEVLFSAG [r5_857_TrMRF] | 0.68 ± 0.15 kcal/mol | 0.655 ± 0.042 kcal/mol | 0.519 ± 0.14 kcal/mol
15 | SAGGSAGGSAGGSNMYIEIDEIERNPDDWYQITVKIYNPDNGEKEKITFYMPPGQEIKISAGGSAGGSAGGS [r4_133_TrROS] | 1.25 ± 0.2 kcal/mol | 0.896 ± 0.076 kcal/mol | 1.51 ± 0.12 kcal/mol
16 | SAGGSAGGSAGGPPKPIKVLLYKPEENKLYVLVFPEGVSLEEVKKYVESHPNFKIVSVEGSAGGSAGGSAGG [r7_624_TrMRF] | 2.72 ± 0.11 kcal/mol | 2.04 ± 0.087 kcal/mol | 3 ± 0.051 kcal/mol

Row | Sequence | folding stability dG unfold [1] | folding stability dG unfold [2] | folding stability dG unfold [3]
17 | SAGGSAAGYAVLVRVEEVRLTSFRRRADGSLLEVDPDVELKLEVLAVFRIYPSPGDGWVVDPSDPASAGGSA [r15_162_TrMRF] | 3.53 ± 0.062 kcal/mol | 2.73 ± 0.057 kcal/mol | 3.827 ± 0.025 kcal/mol
18 | SAEPPWYWIIKIEFPNGKPIVFMMDDPEEARERFEEKLRKEFPDGMKIESIPITPNDMDSPEEALERIKSAG [r14_900_TrROS] | 1.75 ± 0.48 kcal/mol | 1.8 ± 0.27 kcal/mol | 1.62 ± 0.16 kcal/mol
19 | SAGGSASTLRLIVIPPSYPNMTIEEAIKNIKIKRPDGKEFEVEVLEVIPVKDYRLLLVRIKDPIPYSAGGSA [r15_331_TrMRF] | 2.43 ± 0.14 kcal/mol | 2.32 ± 0.058 kcal/mol | 2.46 ± 0.071 kcal/mol
20 | SAGGGVKFELVDIESDGDGKYIAKIKVYNENGELIEEIEIEVKGLKNVTLTIPLINKPKKIEIKVTPESAGG [r13_427_TrMRF] | 1.21 ± 0.12 kcal/mol | 0.752 ± 0.03 kcal/mol | 1.51 ± 0.093 kcal/mol
21 | SAGGSAGGSMKVYRIKIEVDGKTYEIEVEMSEEEVKKLAEELGIKDVKIKKVEIEPVEEVEEKSAGGSAGGS [r12_292_TrROS_Hall] | 1.92 ± 0.21 kcal/mol | 0.859 ± 0.18 kcal/mol | 2.07 ± 0.1 kcal/mol
22 | SPEVPPGKTLEREFKGVPVRLTREEESGTIHITVYPPTDPSKPLYEAEFSPDELRPIPLPPEVAAALAAESA [r9_1051_JUSTAS] | -0.13 ± 0.16 kcal/mol | -0.681 ± 0.24 kcal/mol | 0.0553 ± 0.1 kcal/mol
23 | SAGGSPFKKETFEFENVKVEVYRLPGPYALALLEVEVSGEPVYYVAVFKLGPDNKLEVVSFGPVDLSAGGSA [r2_171_TrMRF] | 2.78 ± 0.053 kcal/mol | 2.63 ± 0.054 kcal/mol | 2.85 ± 0.031 kcal/mol
24 | SGSVELSFDPSKPYKVKITATAPKDGTPYEVSGTTDPATGTITLPIRRPGSGEPLPPEELEFEIEVSPPESA [r9_928_JUSTAS] | 0.167 ± 0.066 kcal/mol | -0.244 ± 0.071 kcal/mol | 0.342 ± 0.12 kcal/mol
25 | SAGGSAGGSAGGKIIEVKEENGEVYLLVEVDGKKEVIKFPKGAKLEEIKVDVKEVKVLKPSAGGSAGGSAGG [r7_373_TrROS_Hall] | 0.539 ± 0.12 kcal/mol | -0.0364 ± 0.065 kcal/mol | 0.563 ± 0.1 kcal/mol
26 | SAGGSAGGSMPVVEVEITVSYTVPETGEILTKPETITMTPEEAEKIKEELEKKGYKVEVKYNPKSAGGSAGG [r6_97_JUSTAS] | 1.15 ± 0.1 kcal/mol | 0.824 ± 0.043 kcal/mol | 1.21 ± 0.067 kcal/mol
27 | SAGGSAGGSAMYVKVTFTYPDGSTTTVTTQLDEEEAKKLVEELAPLPVEAKLEIIPEDVPESAGGSAGGSAG [r3_35_JUSTAS] | 0.655 ± 0.17 kcal/mol | 0.344 ± 0.073 kcal/mol | 0.249 ± 0.23 kcal/mol
28 | SAGGSAGGSAGGSMLVTEVSISPLPNGTVKVTTKLVLEPPDGVSVLEEESSVVSPEELSSAGGSAGGSAGGS [r4_389_JUSTAS] | 0.484 ± 0.099 kcal/mol | 0.11 ± 0.028 kcal/mol | 0.687 ± 0.041 kcal/mol
29 | SAGGSAGGSEKVTIRFPAKELRERFPNATPEQIADRIAKKFPNIKRIEVEQEPGYYRITVQVESAGGSAGGS [r12_590_TrROS] | 2.15 ± 0.12 kcal/mol | 2.58 ± 0.12 kcal/mol | 1.49 ± 0.043 kcal/mol
30 | SAGGSAGGSPKIKEVKYIPPTGKIEVLIELPNGKPIKVTFDPKIKVNPVFYNGKPIFYFTGNPSAGGSAGGS [r12_789_TrMRF] | 1.19 ± 0.076 kcal/mol | 0.925 ± 0.015 kcal/mol | 1.21 ± 0.073 kcal/mol
31 | SAGGSAGMPSPVLLDVTIANPDGTTSTVTAPYASPEVAEAYVRENYPDAEVTYDPATGRVSVNVPSSAGGSA [r15_313_JUSTAS] | 2.2 ± 0.054 kcal/mol | 2.31 ± 0.092 kcal/mol | 2.09 ± 0.033 kcal/mol
